Laboratory results reported in the Human Domainome abundance scans (Beltran et al. 2025).

B1: POU domain, class 2, transcription factor 1, residues 285 to 354; numbered along this chain, P14859 (parent)
chain: LEELEQFAKTFKQRRIKLGFTQGDVGLAMGKLYGNDFSQTTISRFEALNLSFKNMCKLKPLLEKWLNDAE

Variants of: B1
Assay: abundance fitness (aPCA) (normalised: wild type 0, dead -1); higher = more abundant; growth selection in yeast, the domain comes from the species named
Conditions: Homo sapiens

Abundance fitness: each site, then its substitutions
G23: Q -0.023 | R -0.071 | P -0.11 | C -0.073 | W -0.069 | T -0.004 | V 0.113
K17: Y -0.07 | D 0.001 | R -0.166 | I -0.1 | W -0.037 | T -0.029 | Q -0.023 | E 0.01 | G -0.027 | V -0.06 | N 0.076 | L -0.016 | S -0.003 | C -0.046 | M -0.007 | P -0.966
N35: S -0.038 | K 0.006 | G 0.053 | Y -0.494 | E 0.025 | I 0.03 | P -0.031 | D 0.035 | V -0.057 | R 0.008 | T 0.002 | M -0.108 | H 0.073 | Q 0 | A -0.011
D36: H -0.077 | I -0.006 | N -0.043 | F -0.19 | S -0.05 | P -0.058 | V -0.029 | K -0.028 | M -0.121 | A -0.049 | Y -0.037 | E -0.027 | Q -0.034 | R -0.047 | G -0.092 | C -0.036 | L 0.014
Y33: G -0.097 | T -0.061 | E -0.047 | N -0.075 | F -0.031 | V -0.151 | Q -0.067 | D -0.125 | I -0.019 | W -0.122 | L -0.008 | R -0.103 | H 0.031 | K -0.053 | S -0.039 | M -0.11 | P -0.104 | A -0.045 | C -0.04
F37: T -0.059 | K -0.184 | M -0.011 | S -0.119 | D 0.006 | P -0.148 | Y -0.135 | L -0.003 | A -0.081 | R -0.355 | V 0.038 | I -0.011 | C 0.028 | N -0.337 | Q -0.214 | E -0.199 | G -0.211
Q22: F -0.129 | I -0.076 | G -0.099 | C 0.031 | D -0.035 | S -0.005 | N -0.119 | H -0.118 | P 0.001 | K 0.048 | R -0.011 | M -0.134 | L -0.001 | A -0.014 | V 0 | W -0.072 | E -0.024 | T -0.011 | Y -0.029
L27: D -0.136 | E -0.002 | F 0.01 | A 0.073 | Q 0.003 | W -0.106 | H 0.049 | Y -0.113 | K -0.052 | V 0.003 | I -0.005 | R 0.016 | N -0.13 | M 0 | C 0.039 | P -0.31 | T -0.053
F20: C -0.016 | S -0.197 | A -0.035 | E -0.372 | Q -0.038 | N -0.197 | T -0.253 | D -0.706 | H -0.045 | V -0.024 | P -0.827 | K -0.073 | W 0.004 | R -0.092 | Y 0.06 | L -0.081
G30: Y 0.002 | F 0.014 | S -0.019 | N -0.113 | R 0.01 | M -0.024 | H -0.068 | P -0.209 | D -0.087 | I 0.012 | L -0.015 | W 0.006 | E -0.025 | Q 0.102 | T -0.028 | C 0 | K -0.034 | A 0.014
G19: D -0.314 | V -0.214 | S -0.288 | M -0.471 | H -0.564 | A -0.391
